# Assay results from patent US20050153395A1, “Unique integrin binding site in connective tissue growth factor (CTGF)” (CHILDREN'S HOSPITAL INC., priority 2003, published 2005).
# B1: CTGF1-4: full length CTGF protein, 38 kDa (protein)
# chain: QNCSGPCRCPDEPAPRCPAGVSLVLDGCGCCRVCAKQLGELCTERDPCDPHKGLFCDFGSPANRKIGVCTAKDGAPCIFGGTVYRSGESFQSSCKYQCTCLDGAVGCMPLCSMDVRLPSPDCPFPRRVKLPGKCCEEWVCDEPKDQTVVGPALAAYRLEDTFGPDPTMIRANCLVQTTEWSACSKTCGMGISTRVTNDNASCRLEKQSRLCMVRPCEADLEENIKKGKKCIRTPKISKPIKFELSGCTSMKTYRAKFCGVCTDGRCCTPHRTTTLPVEFKCPDGEVMKKNMMFIKTCACHYNCPGDNDIFESLYYRKMYGDMA
# B2: Heparinase I: enzyme that acts on highly sulfated heparan sulfate proteoglycans (protein, UniProt Q05819 22-384, looked up)
# Heparin lyase I: QQKKSGNIPYRVNVQADSAKQKAIIDNKWVAVGINKPYALQYDDKLRFNGKPSYRFELKAEDNSLEGYAAGETKGRTELSYSYATTNDFKKFPPSVYQNAQKLKTVYHYGKGICEQGSSRSYTFSVYIPSSFPDNATTIFAQWHGAPSRTLVATPEGEIKTLSIEEFLALYDRMIFKKNIAHDKVEKKDKDGKITYVAGKPNGWKVEQGGYPTLAFGFSKGYFYIKANSDRQWLTDKADRNNANPENSEVMKPYSSEYKTSTIAYKMPFAQFPKDCWITFDVAIDWTKYGKEANTILKPGKLDVMMTYTKNKKPQKAHIVNQQEILIGRNDDDGYYFKFGIYRVGNSTVPVTYNLSGYSETAR
# B3: CTGF3-4: C-terminal CTGF fragment comprising modules 3 and 4 (protein)
# chain: AYRLEDTFGPDPTMIRANCLVQTTEWSACSKTCGMGISTRVTNDNASCRLEKQSRLCMVRPCEADLEENIKKGKKCIRTPKISKPIKFELSGCTSMKTYRAKFCGVCTDGRCCTPHRTTTLPVEFKCPDGEVMKKNMMFIKTCACHYNCPGDNDIFESLYYRKMYGDMA
# What was measured:
# [1] = system: pancreatic stellate cells (PSC); experiment: PSC adhesion assay on coated wells; type: cell-based, rat; settings: coated at 2 μg/ml
# From the text: Rat PSCs were isolated by a modification of the method described by Phillips et al., Gut; 52:677-82, 2003. Briefly, pancreatic tissue was digested in situ with 0.03% collagenase P (Roche, Indianapolis, Ind.) in HBSS by perfusion through the thoracic aorta. This protocol was approved by the Institutional Animal Care and Use Committee of Children's Research Institute, Columbus, Ohio. The tissue was pooled, minced with scissors, and then digested with 0.05% collagenase P, 0.02% protease XIV (Sigma, St. Louis), and DNase I (Roche, Indianapolis, Ind.) in HBSS. The resulting cell suspension was centrifuged in a 12% Optiprep gradient at 1400 g for 14 minutes. Stellate cells separated into a hazy band just above the interface of a the gradient and the aqueous buffer. This band was harvested, and the cells washed and resuspended in DMEM supplemented with 25 mM Hepes buffer, 10% FBS, and 100 U/ml penicillin in, 100 μg/ml streptomycin. The, cells were maintained at 37° C. in a humidified atmosphere of 5% CO2/95% air.
# The ability of activated PSC to adhere to non-tissue culture plastic microtiter wells coated with recombinant CTGF1-4, CTGF3-4 or CTGF4 was investigated. The solid phase binding assay was carried out as described in Example 2. […] To assess the possibility that CTGF-mediated PSC adhesion involved cell surface integrins, the effect of divalent cations on cell adhesion was examined, as described in Example 2. […]
# Because CTGF is a heparin-binding protein, this property was further investigated.
# To identify the peptides that bind to PSCs, cell adhesion assays were carried out as described in Example 3.
# To further investigate the peptide binding, P2 or P5 (10 μM) or vehicle buffer alone (no add) were added to PSC cell suspensions for 30 minutes at room temperature.
# PSCs [2] = experiment: PSC chemotaxis (migration) assay in culture insert; type: cell-based, rat; settings: substance in lower chamber
# Description: To examine whether CTGF plays a role in PSC migration, a chemotaxis assay was carried out in which the migratory behavior of PSCs in the upper chamber of a culture insert was assessed following addition of CTGF to the lower chamber. […] PSC migration was also promoted by FN, PDGF or TGF-β1.
# PSCs [3] = experiment: PSC DNA synthesis, [3H]thymidine incorporation; type: cell-based, rat; settings: 24 hours; CTGF1-4 effect in 0.1% serum, not in serum-free medium
# Description: To measure the effect of CTGF on cell proliferation, DNA synthesis was measured by ^3H incorporation in PSCs. The cells were incubated for 24 hours with 0.2 μCi [^3H] thymidine in each well (24-well plate). The incorporation of [^3H] thymidine into PSC DNA was determined using a scintillation counter after the cells had been washed with PBS, fixed with 10% methanol, treated with cold 5% trichloroacetic acid, and lysed in 0.3 N NaOH.
# integrin α5β1 = integrin α5β1 (Homo sapiens, UniProt P05556+P08648); experiment: Solid phase ELISA of integrin α5β1 binding; settings: for binding to integrin α5β1: coated at 2 μg/ml, 1 μg/ml integrin
# Description: In a second approach, a solid phase binding assay was used in which CTGF1-4 or FN were individually coated onto microtiter wells that were subsequently incubated with purified integrin α5β1. The presence of immobilized integrin α5β1 was detected by ELISA using an anti-integrin α5β1 antibody similar to the methods described in Example 3 above. In addition, CTGF1-4 bound to integrin α5β1 in a dose-dependent manner, with maximal binding at 2 μg/ml CTGF. This level of CTGF1-4 (2 μg/ml) binding was the same as that elicited by 2 μg/ml FN, a well known ligand of integrin α5β1. In a similar experiment, 2 μg/ml of CTGF1-4;CTGF3-4 or CTGF4 were individually precoated onto microtiter wells. Using the solid-phase assay, integrin α5β1 bound to CTGF1-4, CTGF3-4 or CTGF4 See FIG. 5 (Panel B).
# To directly analyze whether α5β1 integrin binds to CTGF4, microtiter wells coated with CTGF4 (2 μg/ml) or FN (4 μg/ml) were used in an ELISA assay to detect integrin binding, as described in Example 3. For these assays, 1 μg/ml integrin α5β1, alone or in the presence of 35 μM of P2peptide (CTGF[257-272]) and 35 μM of P5 peptide (CTGF [285-291]), were added to the precoated plates. […] The binding between CTGF4 and integrin α5 β1 was blocked by peptide P5 (CTGF [285-291]) or peptide P2 (CTGF[257-272]). […]
# collagen I mRNA = experiment: Collagen I mRNA expression in PSCs; type: cell-based, rat
# [4] = system: hepatic stellate cells (HSC); experiment: HSC adhesion assay on coated wells (CyQUANT fluorescence); type: cell-based, rat
# Description: CTGF4 is known to be expressed in hepatic stellate cells (HSC) and to induce proliferation and extracellular matrix (ECM) production in these cells. (Williams et al., J Hepatol 32, 754-761, 2000; Paradis et al., Lab Invest 82, 767-774, 2002). The following experiments were carried out to determine if HSCs adhere to CTGF. HSCs were isolated from normal Sprague-Dowley rate by sequential perfusion with pronase/collagenase and purified by density gradient separation as described in Vyas et al. (Gastroenterology 109: 889-898, 1995).
# The cells were subsequently detached using 1 mM EDTA PBS (137 mM NaCl, 2.7 mM KCl, 4.3 mM Na2HPO4, 1.4 mM KH2PO4, pH 7.3), washed twice in DMEM and resuspended in serum free medium containing 0.5% BSA. The cells-were plated (1.25×10^4 cells/well) in a 96 well plate coated with one of the following: 2 μg/ml CTGF isoform (CTGF1-4, CTGF3-4, CTGF4), 1 μg/ml laminin, or 4 μg/ml vitronectin and incubated for 20 minutes at 37° C. Subsequently the cells were washed with PBS and the adherent cells were fixed with 10% formalin and stained with CyQUANT GR dye/cell lysis buffer (Molecular Probes , Eugene, Oreg.) according to the manufacturer's instructions. The number of cells that adhered to CTGF isoforms or ECM protein was quantified by measuring the sample fluorescence intensity at Ex/Em: 480/520 nm using a micro-plate reader (CytoFluor™ 2350).
# To determine if the CTGF-mediated HSC adhesion was carried out through integrin receptors, the experiment described above were carried out in the presence and absence of 10 mM EDTA. […] It is widely believed that Mn^2+ induces conformational shifts that mimic the physiological activation of β1 and β3 integrins (Roberts et al., J Biol Chem 278: 1975-1985, 2003, van der Pauw et al., J Periodontal Res 37: 317-323, 2002) as Mn^2+-induced activation leads to enhanced ligand-binding affinity and cell adhesion (Mould et al., J Biol Chem 277: 19800-19805, 2002, Loftus & Liddington J Clin Invest 100: S77-81, 1997, Lin et al., J Biol Chem 272: 14236-14243, […]). […]
# Chain of integrin α5β1 (P08648 42-894 limits assumed): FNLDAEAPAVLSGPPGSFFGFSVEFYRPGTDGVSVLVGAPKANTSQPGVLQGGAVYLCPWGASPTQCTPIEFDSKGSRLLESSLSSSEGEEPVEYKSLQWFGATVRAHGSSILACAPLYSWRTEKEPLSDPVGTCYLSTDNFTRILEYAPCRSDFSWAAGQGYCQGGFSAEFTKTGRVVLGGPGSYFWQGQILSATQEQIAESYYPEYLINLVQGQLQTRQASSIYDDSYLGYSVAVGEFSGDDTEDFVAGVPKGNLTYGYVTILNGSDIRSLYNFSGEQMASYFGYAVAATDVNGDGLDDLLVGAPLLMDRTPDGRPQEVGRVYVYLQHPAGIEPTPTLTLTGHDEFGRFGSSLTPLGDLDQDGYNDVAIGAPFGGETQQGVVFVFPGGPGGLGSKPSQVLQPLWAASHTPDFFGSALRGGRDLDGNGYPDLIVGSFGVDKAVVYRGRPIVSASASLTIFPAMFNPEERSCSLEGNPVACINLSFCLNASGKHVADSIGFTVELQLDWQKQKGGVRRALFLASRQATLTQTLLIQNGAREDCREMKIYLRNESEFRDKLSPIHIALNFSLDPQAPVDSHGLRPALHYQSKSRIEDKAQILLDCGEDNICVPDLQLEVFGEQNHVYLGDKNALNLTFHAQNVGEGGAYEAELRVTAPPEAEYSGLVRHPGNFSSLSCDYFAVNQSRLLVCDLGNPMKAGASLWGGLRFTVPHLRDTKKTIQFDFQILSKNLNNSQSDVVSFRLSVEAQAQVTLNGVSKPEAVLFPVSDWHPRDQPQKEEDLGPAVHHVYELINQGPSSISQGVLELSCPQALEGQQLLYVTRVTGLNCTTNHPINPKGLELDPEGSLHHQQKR
# Chain of integrin α5β1 (P08648 895-1049 partner limits assumed): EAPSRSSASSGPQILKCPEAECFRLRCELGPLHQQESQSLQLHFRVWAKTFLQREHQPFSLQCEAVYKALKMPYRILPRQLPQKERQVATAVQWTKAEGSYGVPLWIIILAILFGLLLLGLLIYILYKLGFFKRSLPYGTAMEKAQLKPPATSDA
# Chain of integrin α5β1 (P05556 21-798): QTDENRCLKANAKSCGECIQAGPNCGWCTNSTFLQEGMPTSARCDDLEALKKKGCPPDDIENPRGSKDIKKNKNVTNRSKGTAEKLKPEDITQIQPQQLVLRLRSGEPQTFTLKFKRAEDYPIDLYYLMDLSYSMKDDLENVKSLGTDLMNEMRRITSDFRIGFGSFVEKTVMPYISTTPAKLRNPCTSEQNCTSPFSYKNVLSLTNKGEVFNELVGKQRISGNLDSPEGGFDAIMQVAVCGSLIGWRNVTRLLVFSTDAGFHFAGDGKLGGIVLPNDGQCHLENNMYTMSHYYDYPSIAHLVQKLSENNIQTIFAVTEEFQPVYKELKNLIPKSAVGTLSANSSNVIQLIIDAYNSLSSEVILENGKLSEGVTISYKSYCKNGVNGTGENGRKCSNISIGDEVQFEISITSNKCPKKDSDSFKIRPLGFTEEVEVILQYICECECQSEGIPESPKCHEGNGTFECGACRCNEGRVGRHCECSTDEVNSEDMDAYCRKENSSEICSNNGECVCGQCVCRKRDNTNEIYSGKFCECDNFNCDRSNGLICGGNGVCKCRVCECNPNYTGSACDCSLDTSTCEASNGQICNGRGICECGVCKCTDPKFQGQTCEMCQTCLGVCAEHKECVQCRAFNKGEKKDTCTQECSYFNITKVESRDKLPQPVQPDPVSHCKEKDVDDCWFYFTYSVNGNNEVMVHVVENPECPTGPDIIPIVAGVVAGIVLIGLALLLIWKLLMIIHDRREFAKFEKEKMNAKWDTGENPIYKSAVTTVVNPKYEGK
Molecule,PSC adhesion supported by the coated substance [1],PSC migration (PSCs [2]),PSC proliferation (DNA synthesis) (PSCs [3]),binding to integrin α5β1 (integrin α5β1),"binding to integrin α5β1, maximal binding at (integrin α5β1; coated protein) [µg/mL]",collagen I mRNA expression in PSCs (collagen I mRNA),"inhibition of HSC adherence to CTGF[257-272] ([4]; peptide-coated wells, heparin 2 μg/ml)","inhibition of CTGF4-mediated HSC adhesion ([4]; wells coated 2 μg/ml CTGF4, EDTA 10 mM, GRGDsp 1 mM, Echistatin 2 μM, antibody/IgG 25 μg/ml, heparin 2 μg/ml)",inhibition of vitronectin-mediated HSC adhesion ([4]; wells coated 4 μg/ml vitronectin)
B1,significantly promoted,induced PSC migration,significantly enhanced,bound,2,significantly increased,–,–,–
B2,–,–,–,–,–,–,abrogated,unable to adhere,adhered to vitronectin
B3,significantly promoted,induced PSC migration,–,bound,–,–,–,–,–
